Test results taken from patent US20240279345A1, “ALPHA 5 BETA 1 INTEGRIN BINDING AGENTS AND USES THEREOF” (PASITHEA THERAPEUTICS CORP., priority 2021, published 2024).

What was measured:
[1] = biological target: purified recombinant human α5β1 integrin heterodimer (rh-α5β1; Acro Biosystems, cat. no. IT1-H52W5) (human) (UniProt P08648); experiment: Conformation assay ELISA: plate coated with 12G10, soluble 12G10 dilution series premixed with His-tagged rh-α5β1 and 0.5 mM MnCl2, captured α5β1 detected by anti-6xHis; competitor on the plate: 12G10 itself
[2] = biological target: purified recombinant human α5β1 integrin heterodimer, 6×His tagged (rh-α5β1; Acro Biosystems, cat. no. IT1-H52W5) (human) (UniProt P08648); experiment: ELISA, inhibition of rh-α5β1-His binding to coated FN, isotype control (data normalised to it)
[3] = biological target: recombinant human α4β1 integrin (human) (UniProt P13612); experiment: ELISA, coated integrin, supernatant 1:10
[4] = biological target: recombinant human α5β1 integrin (human) (UniProt P08648); experiment: ELISA, coated integrin, supernatant 1:10
[5] = biological target: T1, recombinant mouse α5β1 integrin (mouse, UniProt P11688 45-999; P09055 21-728); experiment: ELISA, coated integrin, supernatant 1:10
T1 construct: bought recombinant heterodimer (R&D Systems cat. 7728-A5) coated on the plate; also called rm-α5β1
Protocol: Plates were washed 3 times with Wash Buffer (1× Tris Buffered Saline containing 0.05% Tween20), blocked with 2% BSA in 1×TBS (made from 10× Thermo Scientific Blocker BSA (10×) in TBS; Thermo Fisher Scientific, Waltham, MA, cat. no. 37520) for 2 hours at room temperature (RT) then incubated with hybridoma supernatants diluted 1:10 with Standard Diluent (2% BSA, 1×TBS, 0.05% Tween20). […] Absorbance 450 nm was measured.

[6] = biological target: α5β1 integrin on cells (PMA-activated K562 cells; U87MG cells) (human) (UniProt P08648); experiment: flow cytometry on PMA-activated K562 cells, hybridoma supernatant
[7] = biological target: purified recombinant human α5β1 integrin heterodimer, 6×His tagged (rh-α5β1; Acro Biosystems, cat. no. IT1-H52W5) (human) (UniProt P08648); experiment: BLI (Octet), supernatant mAb on anti-mouse IgG Fc sensor, 20 nM rh-α5β1
[8] = biological target: T2, purified recombinant human α5β1 integrin heterodimer (rh-α5β1; Acro Biosystems, cat. no. IT1-H52W5) (human, UniProt P08648 42-995; P05556 21-728); experiment: FN-blocking ELISA
T2 construct: Bought protein; 6×His tagged; also called rh-α5β1-6×His tagged protein; His-tagged-α5β1
Protocol: Following 1 hour at RT, the wells were washed 3 times, incubated with biotinylated Anti-6×His-Tag Ab (Invitrogen, Carlsbad, CA, cat. no. MAI-21315-BTIN) at 1:1000 in Standard Diluent for 1 hour, washed 3 times, incubated for 30 minutes with poly-HRP Streptavidin (Thermo Fisher Scientific, Waltham, MA, cat. no. N200), washed 4 times, incubated with TMB substrate (Thermo Fisher Scientific, Waltham, MA, cat. no. N301) for 2-5 minutes, followed by addition of ELISA Stop Solution (Invitrogen, Carlsbad, CA, cat. no. SS04). Absorbance 450 nm was measured. Data points were normalized to the isotype Control Ab values at each concentration and reported as % Absorbance 450 nm normalized to Control Ab. Non-linear regression analysis was used to fit curves (4-parameter) to the data using GraphPad Prism version 9.0.2 (GraphPad Software, LLC, San Diego, CA).

[9] = biological target: T2, purified recombinant human α5β1 …; experiment: Conformation assay ELISA: plate coated with 12G10, antibody dilution series premixed with His-tagged rh-α5β1 and 0.5 mM MnCl2, captured α5β1 detected by anti-6xHis; competitor on the plate: 12G10
Protocol: Plates were then washed 3 times with Wash Buffer (1× Tris Buffered Saline containing 0.05% Tween20), then blocked with 2% BSA in 1×TBS for 2 hours at room temperature (RT). […] After 1 hour at RT, the wells were washed 3 times, incubated with biotinylated Anti-6×His-Tag Ab (Invitrogen, Carlsbad, CA, cat. no. MAI-21315-BTIN) at 1:1000 in Standard Diluent for 1 hour, washed 3 times, incubated for 30 minutes with poly-HRP Streptavidin (Thermo Fisher Scientific, Waltham, MA, cat. no. N200), washed 3 times, incubated with TMB substrate (Thermo Fisher Scientific, Waltham, MA, cat. no. N301) for 2-5 minutes, followed by addition of ELISA Stop Solution (Invitrogen, Carlsbad, CA, cat. no. SS04). Absorbance 450 nm was measured.

For “12G10 (mouse anti-human integrin beta1/CD29 antibody, Novus Biologicals, cat. no. NB100-63255)”, the IC50 (read off the curve) [1] was 0.08 µg/mL.

With “Isotype control antibody (Ms IgG2a, EMD Millipore, cat. no. PP102)” the % Max Inhibition [2] was 0%.

B1: A-15C03 (antibody, part only; not given: light chain, V domains shown, part only)
VH: QVQLKESGPGLVAPSQSLSITCTISGFSLTTYGVHWVRQPPGKGLEWLVVIWSDGSTTYNSALKSRLNITKDNSKSQVFLKMNSLQTDDTAMYYCVRHGGLLRRDAMDYWGQGTSVTVSS
With B1 the Absorbance 450 nm [3] was 0.0793 A450, the Absorbance 450 nm [4] was 0.478 A450 and the Absorbance 450 nm [5] was 0.0709 A450. For the same molecule, the MFI [6] was 1970, the Kd [7] was 4.67 nM and the koff [7] was 0.00129 s⁻¹. The kon [7] was 276000 M⁻¹ s⁻¹.

B2: A-15B08 IgG4 Chimera (antibody, V domains shown)
VH: QVQLKESGPGLVAPSQSLSITCTISGFSLTSYGVHWVRQPPGKGLEWLVVIWSDGSTTYNSTLKSRLSISKDNSKSQVFFKMNSLQTDDTAMYYCARHYDYDGDWFAYWGQGTLVTVSA
VL: QIVLTQSPAIMSASLGERVTMTCTASSRVSSNSLHWYQQKPGSSPKLWIYSTSNLASGVPARFSGSGSGTSYSLTISSMEAEDAATYYCHQYLRSPPTFGGGTKLEIK
notes: heavy chain glycosylated at the NST site of CDRH2; also called A-15B08 (human IgG4 chimeric antibody)
With B2 the “fold potency (IC50) against the mouse hybridoma antibody it was derived from” value [8] was roughly 2 fold and the “IC50 (read off the curve)” value [9] was roughly 0.02 µg/mL.

B3: C-14D12 IgG4 Chimera (antibody, V domains shown)
VH: QVQLKESGPDLVAPSQSLSITCTVSGFSLTDYGVHWVRQPPGKGLEWLVVIWSDGSTTYNSALKSRLSITKDTSKRQVFLKMNSLQTDDTAMYYCARHAPSFIRYGSRYDALDYWGQGTSVTVSS
VL: QIVLTQSPAIMSASLGERVTLTCTASSSVTSSFLHWYQQKPGSSPKLWIYSTSNLASGVPARFSGSGSGTSYSLTISSMEAEDAATYYCHQYHRSPPTFGGGTKLEIK
notes: also called C-14D12 (human IgG4 chimeric antibody)
B3 was tested, and the “fold potency (IC50) against the mouse hybridoma antibody it was derived from” value [8] was roughly 2 fold and the “IC50 (read off the curve)” value [9] was roughly 0.02 µg/mL.
